B1: GTF0459NTnativeT6: T6 C-terminal truncation of GTF0459, SEQ ID NO: 134, strain SG1298 (protein)
chain: INGKQYYVNSDGSVRKNFVFEQDGKSYYFDAETGALATKSQDEFSTEPIKAAVDFSSGNQLYKNDNKSLDQLDTFITADAWYRPKSILKDGKTWTASTEADKRPLLMVWWPDKSTQVNYLNYMQNQGLGAGSFSTNSSQESLNLAAKAVQTKIEERIAREGNTNWLRTSIDQFIKTQPGWNSSTENSSYDHLQGGQLLFNNSKGDTGNRTSYANSDYRLLNRTPTNQSGTRKYFKDNSIGGLEFLLANDIDNSNPAVQAEQLNWLHFMMNIGSIMANDPTANFDGLRVDALDNVDADLLQIASDYFKAVYGVDKSEANAIKHLSYLEAWSANDPYYNKDTKGAQLPIDNALRNALTNLLMRDKNTRMQLGDMTAFMNSSLNPRGANDKNGERMANYIFTRAHDTEAQTIIQRIIRDRINPNLFGYNFTRDEIKKAFEIYNADINTAHKTYASYNLPSVYALMLTNKDSVTRVYYGDLYREDGHYMAKKTPYFDAIDTLLRARIKYVAGGQDMEVKKVGNDGLLTSVRYGKGANNSTDWGTTETRTQGMGVILTNNYDFRLGSNETVTMNMGRAHRNQLYRPLLLTTKDGLATYLNDSDVPSNLLKRTDWNGNLTFNANDVFGVENVQVSGYLGVWVPVGAKANQDARTQPSNRANSDGQVYKSSAALDSQVMYEAFSNFQAFADDQPELYMNRVLAKNTDLLKAWGVTSVGLPPQYVSSKDGTFLDSTIDNGYAFDDRYDMALSQNNKYGSLEDLLNVLRALHKDGIQAIADWVPDQIYNLPGKEVVNATRVNGYGYHQQGYQIVDQAYVANTRTDGTDYQGRYGGAFLDELKAKYPSIFNRVQISNGKQLPTNEKITKWSAKYFNGTNILGRGINYVLRDDKTNQYFNTSANGQLLPTPLRDTGAITSTQVFQRRGQDVYFLRDNQVIKNEFVQDGNGNWYYFGADGKMTKGAQNINSKDYYFFDNGVQLRNALRRASNGYTYYYGLDGAMIKNAFVDFDDKHQQVRAFTTQ
modifications: T6 C-terminal truncation of GTF0459
B2: GTF3808T5: T5 C-terminal truncation of GTF3808, SEQ ID NO: 124, strain SG1330 (protein)
chain: INGKQYYVNSDGSVRKNFVFEQDGKSYYFDAETGALATKSQDEFSTEPIKATVDFSSGNQLYKNDDKSLDQLDTFITADAWYRPKSILKDGKTWTASTEADKRPLLMVWWPDKSTQVNYLNYMQNQGLGAGSFSTNSSQESLDQAAKMVQTKIEERIAREGNTNWLRTSIDQFIKTQPGWNSSTENSSYDHLQGGQLLFNNSKGDTGNRTSHANSDYRLLNRTPTNQTGTRKYFKDNSIGGLEFLLANDIDNSNPAVQAEQLNWLHFMMNIGSIMANDPTANFDGLRVDALDNVDADLLQIASDYFKAAYGVDKSEANAIKHLSYLEAWSANDPYYNKDTKGAQLPIDNALRNALTNLLMRDKNTRMQLGDMTAFINSSLNPRGANDKNGERMANYIFTRAHDTEAQTIIQRIIRDRINPNLFGYNFTRDEIKKAFEIYNEDIDKAHKTYASYNLPSVYALMLTNKDSVTRVYYGDLYREDGHYMAKKTPYFDAIDTLLRARIKYVAGGQDMEVKKVGNDGLLTSVRYGKGANNRTDLGTSETRTQGMGVIMTNNYDFRLGSNETVTMNMGRAHRNQLYRPLLLTTKDGIATYLNDSDVPKNLLKRTDWNGNLTFNANDVFGVENVQVSGYLGVWVPYGAKANQDARTQPSNRANSDGQVYKSSAALDSQVMYEAFSNFQAFADDQPELYMNRVLAKNTDLLKAWGITSVGLPPQYVSSKDGTFLDSTIDNGYAFDDRYDMALSQNNKYGSLEDLLNVLRALHKDGIQAIADWVPDQIYNLPGKEVVNATRVNGYGNHQVGYQIIDQAYVANTRTDGTDYQGKYGGAFLDELKAKYPSIFNRVQISNGKQLPTNEKITKWSAKYFNGTNILGRGINYVLRDDKTNQYFNTSANSQLLPTPLRDTGAITSTQVFQRRGQDVYFLRDNQAVKNEFVQDGNGNWYYFGGDGKMTKGAQNINNKDYYFFDNGIQLRNALRRASNGYTYYYGLDGAMVKNAFVDFDDKHKQ
modifications: T5 C-terminal truncation of GTF3808
B3: GTF0459NTnativeT5: T5 C-terminal truncation of GTF0459, SEQ ID NO: 126, strain SG1297 (protein)
chain: INGKQYYVNSDGSVRKNFVFEQDGKSYYFDAETGALATKSQDEFSTEPIKAAVDFSSGNQLYKNDNKSLDQLDTFITADAWYRPKSILKDGKTWTASTEADKRPLLMVWWPDKSTQVNYLNYMQNQGLGAGSFSTNSSQESLNLAAKAVQTKIEERIAREGNTNWLRTSIDQFIKTQPGWNSSTENSSYDHLQGGQLLFNNSKGDTGNRTSYANSDYRLLNRTPTNQSGTRKYFKDNSIGGLEFLLANDIDNSNPAVQAEQLNWLHFMMNIGSIMANDPTANFDGLRVDALDNVDADLLQIASDYFKAVYGVDKSEANAIKHLSYLEAWSANDPYYNKDTKGAQLPIDNALRNALTNLLMRDKNTRMQLGDMTAFMNSSLNPRGANDKNGERMANYIFTRAHDTEAQTIIQRIIRDRINPNLFGYNFTRDEIKKAFEIYNADINTAHKTYASYNLPSVYALMLTNKDSVTRVYYGDLYREDGHYMAKKTPYFDAIDTLLRARIKYVAGGQDMEVKKVGNDGLLTSVRYGKGANNSTDWGTTETRTQGMGVILTNNYDFRLGSNETVTMNMGRAHRNQLYRPLLLTTKDGLATYLNDSDVPSNLLKRTDWNGNLTFNANDVFGVENVQVSGYLGVWVPVGAKANQDARTQPSNRANSDGQVYKSSAALDSQVMYEAFSNFQAFADDQPELYMNRVLAKNTDLLKAWGVTSVGLPPQYVSSKDGTFLDSTIDNGYAFDDRYDMALSQNNKYGSLEDLLNVLRALHKDGIQAIADWVPDQIYNLPGKEVVNATRVNGYGYHQQGYQIVDQAYVANTRTDGTDYQGRYGGAFLDELKAKYPSIFNRVQISNGKQLPTNEKITKWSAKYFNGTNILGRGINYVLRDDKTNQYFNTSANGQLLPTPLRDTGAITSTQVFQRRGQDVYFLRDNQVIKNEFVQDGNGNWYYFGADGKMTKGAQNINSKDYYFFDNGVQLRNALRRASNGYTYYYGLDGAMIKNAFVDFDDKHQ
modifications: T5 C-terminal truncation of GTF0459
B4: GTF3808NT: N terminal-only truncated GTF3808 from Streptococcus sp. SR4, SEQ ID NO: 108, strain SG1313 (protein)
chain: INGKQYYVNSDGSVRKNFVFEQDGKSYYFDAETGALATKSQDEFSTEPIKATVDFSSGNQLYKNDDKSLDQLDTFITADAWYRPKSILKDGKTWTASTEADKRPLLMVWWPDKSTQVNYLNYMQNQGLGAGSFSTNSSQESLDQAAKMVQTKIEERIAREGNTNWLRTSIDQFIKTQPGWNSSTENSSYDHLQGGQLLFNNSKGDTGNRTSHANSDYRLLNRTPTNQTGTRKYFKDNSIGGLEFLLANDIDNSNPAVQAEQLNWLHFMMNIGSIMANDPTANFDGLRVDALDNVDADLLQIASDYFKAAYGVDKSEANAIKHLSYLEAWSANDPYYNKDTKGAQLPIDNALRNALTNLLMRDKNTRMQLGDMTAFINSSLNPRGANDKNGERMANYIFTRAHDTEAQTIIQRIIRDRINPNLFGYNFTRDEIKKAFEIYNEDIDKAHKTYASYNLPSVYALMLTNKDSVTRVYYGDLYREDGHYMAKKTPYFDAIDTLLRARIKYVAGGQDMEVKKVGNDGLLTSVRYGKGANNRTDLGTSETRTQGMGVIMTNNYDFRLGSNETVTMNMGRAHRNQLYRPLLLTTKDGIATYLNDSDVPKNLLKRTDWNGNLTFNANDVFGVENVQVSGYLGVWVPYGAKANQDARTQPSNRANSDGQVYKSSAALDSQVMYEAFSNFQAFADDQPELYMNRVLAKNTDLLKAWGITSVGLPPQYVSSKDGTFLDSTIDNGYAFDDRYDMALSQNNKYGSLEDLLNVLRALHKDGIQAIADWVPDQIYNLPGKEVVNATRVNGYGNHQVGYQIIDQAYVANTRTDGTDYQGKYGGAFLDELKAKYPSIFNRVQISNGKQLPTNEKITKWSAKYFNGTNILGRGINYVLRDDKTNQYFNTSANSQLLPTPLRDTGAITSTQVFQRRGQDVYFLRDNQAVKNEFVQDGNGNWYYFGGDGKMTKGAQNINNKDYYFFDNGIQLRNALRRASNGYTYYYGLDGAMVKNAFVDFDDKHKQVRAFTTQGTMVVGNLHWSGHHFYFDRETGIQAKDRVVRTDDGKLHYYVAETGDMGRNVFATDSSTGKRYYFDADGNTVTGSRVIDGKTYYFNQDGSVGTAYSNRADSIIFENGKARYITPAGEIGRSIFVYNPATKAWNYFDKEGNRVTGRQYIDGHLYYFKEDGSQAKGEIIEENGIKYYYEPESGILASGRYLQVGDDQWMYFKQDGSLAIGQVRADHGYLKYFDKNGIQVKGKTVVEDGKTYYYDAHSGALVTSSFAEIAPNQWSYFNTDGQALKGKWTINGKEYYFDENGIQYKGKAIKVGSRYKYYDENDGQPVTNRFAQIEPNVWAYFGADGYAVTGEQVINGQHLYFDQSGRQVKGAYVTVNGQRRYYDANTGEYVPGR
modifications: Streptococcus sp. SR4

Experiment: GTF activity of strains (PAHBAH assay)
Assay type: biochemical
Details: enzyme expressed in B. subtilis host
Experimental: GTF activity of the strains was analyzed by PAHBAH assay in three separate experiments. Due to minor variations between the expeirments, Table 2 lists the activity of the truncated enzymes in the B. subtilis host along with the experiment in which the activity was measured. Most of the T1, T2, and T6 truncations decreased the activity of the enzymes, whereas the T4 and T5 C-terminal truncations retained similar activity relative to the respective N terminal-only truncations (NT). […] To identify specific amino acid residues within the catalytic domain that may be involved in producing the soluble α-glucan fiber, we analyzed the crystal structures (PDB Identifiers: 3AIB, 3AIC, and 3HZ3) of the catalytic domains of three glucosyltransferases to identify residues within 8 Angstroms of the bound ligand. 57 residues met that criterion. A motif was generated based on the corresponding 57 amino acids in GTF0459 and each of the identified homologs. The motif was then used to generate a consensus sequence to capture the variability in the catalytic domains of GTF0459 and the identified homologs. The consensus sequence is provided as SEQ ID NO: 153.

Row | Molecule | GTF activity of strains: Acitivity (Experiment Number 3) [U/mL] | other results
1 | B1 | – | GTF activity of strains: Acitivity (Experiment Number 1): 28.5 U/mL
2 | B2 | 36.2 | –
3 | B3 | – | GTF activity of strains: Acitivity (Experiment Number 2): 52 U/mL
4 | B4 | 34.9 | –
